Experimental data from article PMC11505714, “A Double-Stranded Aptamer for Highly Sensitive Fluorescent Detection of Glutathione S-Transferases”.

B1: Seq3-2 (ssDNA)
DNA: AGCGTCGGATACCACTACTATGCCGGTCGGGGGTTGGGGATCTCTCTTGGGGGAGGGTT
B2: Seq3 (ssDNA)
DNA: AGCGTCGGATACCACTACTATGCCGGTCGGGGGTTGGGGATCTCTCTTGGGGGAGGGTTATCATGGAGTTCGTGGTCAG
B3: Seq3-1 (ssDNA)
DNA: TGCCGGTCGGGGGTTGGGGATCTCTCTTGGGGGAGGGTTATCATGGAGTTCGTGGTCAG

Target: Glutathione S-transferase (GST) (UniProt P08515 1-218)
Assay: bead fluorescence, confocal microscopy; 37 °C; BB: 20 mM HEPES pH 7.4, 120 mM NaCl, 5 mM KCl, 2 mM MgCl2; wash BB + 0.05% Tween 20; 37 °C, 40 min (section 2.1 gives another binding buffer: DPBS, 5 mM MgCl2)
Conditions: protein: recombinant, tags: biotinylated, on streptavidin agarose beads, chain copies: 2

Chain of Glutathione S-transferase (GST) (P08515 whole entry): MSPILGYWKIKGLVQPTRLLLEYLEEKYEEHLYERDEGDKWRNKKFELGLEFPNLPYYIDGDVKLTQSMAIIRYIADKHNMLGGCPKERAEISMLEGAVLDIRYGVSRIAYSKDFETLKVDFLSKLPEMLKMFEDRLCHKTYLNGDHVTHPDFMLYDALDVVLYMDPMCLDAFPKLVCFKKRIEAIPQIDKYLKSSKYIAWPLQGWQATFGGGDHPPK

| Binder | Kd (label: FAM) | Kd (label: FAM (also called AF488), two small stem-loops with a large loop (Mfold)) |
| --- | --- | --- |
| B1 | 118 ± 21.7 nM |  |
| B2 |  | 34 ± 5.6 nM |
| TGCCGGTCGGGGGTTGGGGATCTCTCTTGGGGGAGGGTT (ssDNA) [Seq3-3] | 268 ± 89.4 nM |  |
| B3 | 29.3 ± 4.8 nM |  |
